Measured values taken from patent US11813311B2, “Treatment and prevention of metabolic diseases” (Singapore Health Services PTE LTD., priority 2019, dated 2023).

Experiments:
[1] = test system: mice with HFMCD-induced liver fibrosis; experiment: HFMCD fibrosis reversal with switch to normal chow plus antibody; format: in vivo, mouse; conditions: for regression of Erk activation: after removal of the metabolic stimulus; for reversal of hepatic collagen content: HFMCD 10 weeks then normal chow; for Mmp2 expression / Timp1 expression: mice with severe fibrosis
Experimental: FIGS. 21A to 21L. Inhibition of Il-11 signalling reverses NASH pathologies in preclinical models and HSC-to-myofibroblast transformation. (A) Schematic showing therapeutic dosing regime in NASH reversal experiment for data shown in (B-G). Mice were fed with WDF for 16 weeks to induce NASH and then treated with (10 mg/kg) X209 or IgG for 8 weeks while they were on continuous WDF feeding. (B) Total liver hydroxyproline content, the levels of (C) liver triglycerides, (D) serum ALT, (E), fasting blood glucose, (F) serum triglycerides, and (G) serum cholesterol in mice on NC and IgG- and X209-treated WDF (n≥5/group). (H) Schematic showing reversal experiment in which fibrosis was established by feeding mice HFMCD for 10 weeks and then replacing this with NC and initiating antibody (X203 and X209) therapy. Mice were euthanized at the indicated time points. (I) Total liver hydroxyproline content (dotted line represents the mean value of NC=0.93) and (J) relative mRNA expression of Mmp2/Timp1 at 1-, 3-, 6-weeks after concurrent metabolic intervention (diet switch) and X203, X209, or IgG treatment (n≥3/group). Quantification of ACTA2^+ve immunostaining (scale bars, 200 μm) following incubation (K) with TGFβ1 or (L) with PDGF, either prior to or after the addition of X203, X209, or IgG (n=5/group). (K-L) TGFβ1 (5 ng/ml), PDGF (20 ng/ml), IgG, X203 and, X209 (2 μg/ml). (B-G, K-L) Data are shown as box-and-whisker with median (middle line), 25th-75th percentiles (box) and min-max percentiles (whiskers); (I) data are shown as mean±s.d; (J) data are represented as line chart (mean) and transparencies indicate s.d. (B) Two-tailed Student's t-test (C-G,K-L) two-tailed, Tukey-corrected Student's t-test; (I-J) two-way ANOVA. FC: fold change; NC: normal chow; WDF: Western diet+15% (w/v) fructose; HFMCD: high fat methionine- and choline-deficient.
Furthermore, combination therapies may be beneficial for reversing fibrosis in NASH′. To address these points, severe liver fibrosis was established using HFMCD for 10 weeks, then converted mice to normal chow, mimicking a robust metabolic intervention, and initiated anti-IL-11 treatments in parallel (FIG. 21H).

[2] = test system: HFMCD-fed mice; experiment: HFMCD NASH model, antibody from week 6 to 10; format: in vivo, mouse; conditions: 10 mg/kg biweekly, four weeks of therapy from week 6
Experimental: FIGS. 20A to 20N. Therapeutic targeting of Il-11 inhibits and reverses NASH pathologies in preclinical models. (A) Schematic showing therapeutic use of X203 and X209 (10 mg/kg, biweekly) in HFMCD-fed mice for experiments shown in (B-E). X203, X209 or IgG isotype control were administered from week 6 to 10 of HFMCD diet. (B) Representative liver histological images (Masson's Trichrome staining; scale bars, 100 μm), (C) relative liver hydroxyproline content, (D) relative liver pro-inflammatory mRNA expression levels (n≥6/group) and (E) serum ALT levels. (F) Western blots of hepatic Erk activation status. (G) Schematic of X203 or IgG administration to MCD-fed db/db mice for experiments shown in H-N. Western blots of hepatic (H) Il-11 and Gapdh, (I) p-Erk and Erk. (J) Representative Masson's Trichrome images of liver from X203 or IgG-treated MCD-fed db/db mice (scale bars, 100 μm). The levels of (K) hepatic triglyceride, (L) relative liver hydroxyproline, (M) serum ALT, and (N) mRNA expression of liver pro-inflammatory markers (n≥5/group). (C-E,K-N) Data are shown as box-and-whisker with median (middle line), 25th-75th percentiles (box) and min-max percentiles (whiskers); two-tailed, Tukey-corrected Student's t-test. FC: fold change; NC: normal chow; HFMCD: high fat methionine- and choline-deficient; MCD: methionine- and choline-deficient.
High fat methionine and choline-deficient (HFMCD) diet fed wild-type mice Five week old male C57BL/6N mice were fed with Methionine and Choline deficient diet supplemented with 60 kcal % fat (A060713011316, Research Diets); control mice were fed with normal chow (NC, Specialty Feeds). Durations of diet and antibody therapies are described.
Mice were injected intraperitoneally with either antagonist anti-IL-11 antibody, antagonist anti-IL11RA antibody or an identical amount of IgG isotype control for the treatment durations outlined in the figures.

[3] = after three weeks of antibody treatment
[4] = at six weeks of antibody treatment

B1: X209: mouse anti-mouse IL-11Rα IgG (IgG1κ), neutralising; VH SEQ ID NO:24, VL SEQ ID NO:25 (antibody, V domains shown)
VH: QVQLQQPGAELVRPGSSVKLSCKASGYTFTNYWMHWLKQRPVQGLEWIGNIGPSDSKTHYNQKFKDKATLTVDKSSSTAYMQLNSLTSEDSAVYYCARGDYVLFTYWGQGTLVTVSA
VL: DIVLTQSPATLSLSPGERATLSCRASQSISNNLHWYQQKSHEAPRLLIKYASQSISGIPARFSGSGSGTDFTLSFSSLETEDFAVYFCQQSYSWPLTFGQGTKLEIK
modifications: Enx209 VH; Enx209 VL
regression of Erk activation [1]: accelerated
reversal of hepatic collagen content [1, 3]: 24%
reversal of hepatic collagen content [1, 4]: 46%
Mmp2 expression [1]: rapidly upregulated
Timp1 expression [1]: downregulated
Erk activation (liver) [2]: abolished
liver damage [2]: inhibited or reversed
liver fibrosis [2]: inhibited or reversed
liver inflammation [2]: inhibited or reversed
steatosis [2]: unchanged

B2: X203: mouse anti-mouse IL-11 IgG (IgG1κ), neutralising; VH SEQ ID NO:22, VL SEQ ID NO:23 (antibody, V domains shown)
VH: EVQLQQSGPELVKPGASVKIPCKASGYTFTDYNMDWVKQSHGKSLEWIGDINPHNGGPIYNQKFTGKATLTVDKSSSTAYMELRSLTSEDTAVYYCARGELGHWYFDVWGTGTTVTVSS
VL: DIVLTQSPASLAVSLGQRATISCRASKSVSTSGYSYIHWYQQKPGQPPKLLIYLASNLDSGVPARFSGSGSGTDFTLNIHPVEEEDAATYYCQHSRDLPPTFGGGTKLEIK
modifications: Enx203 VH; Enx203 VL
regression of Erk activation [1]: accelerated
reversal of hepatic collagen content [1, 3]: 18%
reversal of hepatic collagen content [1, 4]: 37%
Mmp2 expression [1]: rapidly upregulated
Timp1 expression [1]: downregulated
Erk activation (liver) [2]: abolished
liver damage [2]: inhibited or reversed
liver fibrosis [2]: inhibited or reversed
liver inflammation [2]: inhibited or reversed
steatosis [2]: unchanged
